The source of these data is paper PMC3956856, “Interaction of Kinase-Interaction-Motif Protein Tyrosine Phosphatases with the Mitogen-Activated Protein Kinase ERK2” (PLoS ONE, 2014).

T1: STEP KIMKIS peptide (STEP residues 213-256) (mouse, UniProt P54830 213-256)
T1 construct: STEP (PTPN5), residues 213-256 (KIM and KIS); mouse is stated for the STEP 213-539 construct; source: synthetic peptide (Biosynthesis, Inc.), HPLC purified, >98% purity
T1 peptide (looked up): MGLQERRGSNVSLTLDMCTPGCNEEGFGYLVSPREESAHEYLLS

T2: PTPSL KIMKIS (PTPSL residues 332-373) (human, UniProt Q15256 332-373)
T2 construct: PTPSL/PTPBR7 (PTPRR), residues 332-373 (KIM and KIS); human is stated for the PTPSL 332-655 construct; Recombinant, not synthetic; source: final SEC
T2 chain (looked up): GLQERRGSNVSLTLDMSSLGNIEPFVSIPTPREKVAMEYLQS

T3: STEPKIM peptide (STEP residues 213-229) (mouse, UniProt P54830 213-229)
T3 construct: STEP (PTPN5, striatal enriched protein tyrosine phosphatase), residues 213-229 (KIM); mouse is stated for the STEP 213-539 construct; source: synthetic peptide (Biosynthesis, Inc.), HPLC purified, >98% purity
T3 peptide (looked up): MGLQERRGSNVSLTLDM

B1: PTPSL (residues 332-655, human) (domain or fragment, UniProt Q15256 332-655, looked up)
chain: GLQERRGSNVSLTLDMSSLGNIEPFVSIPTPREKVAMEYLQSASRILTRSQLRDVVASSHLLQSEFMEIPMNFVDPKEIDIPRHGTKNRYKTILPNPLSRVCLRPKNVTDSLSTYINANYIRGYSGKEKAFIATQGPMINTVDDFWQMVWQEDSPVIVMITKLKEKNEKCVLYWPEKRGIYGKVEVLVISVNECDNYTIRNLVLKQGSHTQHVKHYWYTSWPDHKTPDSAQPLLQLMLDVEEDRLASQGRGPVVVHCSAGIGRTGCFIATSIGCQQLKEEGVVDALSIVCQLRMDRGGMVQTSEQYEFVHHALCLYESRLSAET
notes: PTPSL/PTPBR7 (PTPRR, PTP STEP-like), human, residues 332-655 (KIM, KIS and catalytic domain); The results loosely call this construct 'full-length PTPSL'; the construct is residues 332-655; also called PTPBR7; PTPRR; source: final SEC
B2: extracellular signal-regulated kinase 2 (ERK2), unphosphorylated (enzyme, UniProt P63086 1-358, looked up)
chain: MAAAAAAGPEMVRGQVFDVGPRYTNLSYIGEGAYGMVCSAYDNLNKVRVAIKKISPFEHQTYCQRTLREIKILLRFRHENIIGINDIIRAPTIEQMKDVYIVQDLMETDLYKLLKTQHLSNDHICYFLYQILRGLKYIHSANVLHRDLKPSNLLLNTTCDLKICDFGLARVADPDHDHTGFLTEYVATRWYRAPEIMLNSKGYTKSIDIWSVGCILAEMLSNRPIFPGKHYLDQLNHILGILGSPSQEDLNCIINLKARNYLLSLPHKNKVPWNRLFPNADSKALDLLDKMLTFNPHKRIEVEQALAHPYLEQYYDPSDEPIAEAPFKFDMELDDLPKEKLKELIFEETARFQPGYRS
notes: ERK2 (extracellular signal-regulated kinase 2), unphosphorylated; also called MAPK; source: final SEC (Superdex 75 26/60)

One series deals with p38α. The conditions noted are these: values previously published, ref [14], [15], [17], [18]; cited from earlier work. The source says: We used ITC measurements to determine the binding affinity of STEP and PTPSL for unphosphorylated ERK2 ( Table 1; Figure S1). […] This complex has a ∼3-times lower Kd (tighter binding) than the next tightest complex, ERK2:PTPSL, and a nearly 70-fold greater affinity than the weakest complex, p38α:HePTP [15]. Like STEP, PTPSL binds ERK2 more tightly (∼3.5-fold) than p38α. We also tested peptides that include the kinase specificity s ... || We also generated a chimeric protein in which we fused the PTPSLKIMKIS to STEPCAT (PSchimera; Figure 1A ). […] Thus, they only adopt a single conformation when they bind their respective MAPKs. This is different from the MAPK-binding domains (MKBD) of MAPK phosphatases (MKP; dual specificity phosphatases; DUSPs), [26]. In MKPs, the KIM sequence is part of a stable, folded domain and thus adopts a single, ordered conformation in both the unbound and MAPK-bound states, [28]. […] Our ... || (+ 1 further places)

The target in series [1] is T4, ERK2 (Rattus norvegicus, UniProt P63086).
T4 construct: gene Mapk1; made in house
Put plainly: Isothermal titration calorimetry with ERK2. The class given is binding. How it is done:
The PTPSLKIM peptide (residues 331–348), STEPKIM (residues 213–229) and STEPKIMKIS (residues 213–256) were synthesized, HPLC purified and verified by mass spectrometry (MS) (>98% purity; Biosynthesis, Inc.). Expression and purification of ERK2 and PTPSLKIMKIS (residues 332–373) was carried out as previously described, [15]. PTPSL (residues 332–655, human), STEP (residues 213–539, mouse) and PSChimera (PTPSL residues 332–373 with STEP residues 257–539; gene synthesized by DNA 2.0) were expressed and purified using the protocol previously described in detail for STEPCAT (residues 244–539). The DUSP16 MAPK binding domain (residues 5–138, human) was expressed and purified as previously described. All purified proteins were stored at −80 °C until use at which point they were thawed and exchanged into the appropriate buffer using size exclusion chromatography (SEC; Superdex 75 26/60; GE Healthcare). The final protein buffer was dependent on the experiment performed. For ITC experiments, the final SEC purification was performed in ITC buffer (10 mM Tris pH 7.5, 150 mM NaCl, 0.1 mM EDTA, 0.5 mM TCEP); for SAXS experiments, the final SEC purification was performed in SAXS buffer (50 mM HEPES pH 6.8, 150 mM NaCl, 5 mM dithiothreitol). PTPSLKIM, STEPKIM and STEPKIMKIS peptides were solubilized in ITC buffer prior to ITC measurements.
ITC experiments were performed at 25 °C using a VP-ITC microcalorimeter (Microcal Inc.). Titrant (10 μL per injection) was injected into the sample cell over a period of 20 seconds with a 250 second interval between titrations to allow for complete equilibration and baseline recovery. 28 injections were delivered during each experiment and the solution in the sample cell was stirred at 307 rpm to ensure rapid mixing. To determine the thermodynamic parameters (ΔH, ΔS, ΔG) and binding constants (K) of the ERK2:PTPSLKIM, ERK2:PTPSL, ERK2:STEP and ERK2:PSChimera interactions, PTPSLKIM, PTPSL, STEP and PSChimera were titrated into ERK2. To determine the same parameters for the ERK2:STEPKIM, ERK2:PTPSLKIMKIS and ERK2:STEPKIMKIS interaction, ERK2 was titrated into the peptides. Titrants were chosen based on the amount of purified protein/peptide available for the experiment. For all titrations the concentrations were slightly varied to ensure independence of the Kd from the protein/peptide concentrations. Data were analyzed with a one-site binding model assuming a binding stoichiometry of 1∶1 using Origin 7.0 software. A nonlinear least-squares algorithm and the titrant and sample cell concentrations were used to fit the heat flow per injection to an equilibrium binding equation, providing values of the stoichiometry (n), change in enthalpy (ΔH) and binding constant (K). All data were repeated in triplicate.
For orientation: In ITC the heat of successive injections is recorded.

Series [2] has as its target T4, ERK2. Put plainly: SAXS of resting-state complexes with ERK2. The conditions noted are these: ERK2:PTPSL complex; 50 mM HEPES pH 6.8, 150 mM NaCl, 5 mM dithiothreitol.
The target of series [3] is T4, ERK2. As to conditions: structural model from cross-linking, MS and molecular modeling; ref [24]; cited from earlier work. An excerpt: In this model, PTPSLCAT binds ERK2 in an orientation in which the catalytic site is positioned near the ERK2 phosphorylation loop. This is different from the p38 ... || Figure 3 Regulatory protein-MAPK interaction strengths. The binding strengths of each KIM-PTP (KIM peptides and KIM-containing MKBDs (in orange font), light blue; KIMKIS peptides, light purple; proteins, light pink) to p38α and ERK2 represented from weakest to tightest (largest Kd to smallest Kd) binding affinity; ‘^†’ indicates values previously published, [15], [17], [18]. KIM-PTP:MAPK complexes determined to be extended using SAXS written in normal text; KIM-PTP:MAPK complexes determined to be compact written in italics; *, compact nature of the ERK2-PTPSL complex determined by ...

In series [4] the target is B2. The series is described as follows: ITC; PTPSLKIM, PTPSL, STEP or PSChimera titrated into ERK2 in the cell; 25 °C; 10 mM Tris pH 7.5, 150 mM NaCl, 0.1 mM EDTA, 0.5 mM TCEP; one-site model; triplicate. The conditions noted are these: both partners purified.
The target in series [5] is T1, STEP KIMKIS peptide (STEP residues …). The series is described as follows: ITC; ERK2 titrated into STEPKIM, PTPSL KIMKIS or STEP KIMKIS in the cell; 25 °C; 10 mM Tris pH 7.5, 150 mM NaCl, 0.1 mM EDTA, 0.5 mM TCEP; one-site model; triplicate. The conditions noted are these: both partners purified.
The target in series [6] is T2, PTPSL KIMKIS (PTPSL residues 332-373). The series is described as above. As to conditions: both partners purified.
For series [7], the target named is T3, STEPKIM peptide (STEP residues 213-229). The series is described as above. As to conditions: both partners purified.

Entries after “also recorded” stand apart in the source; their conditions may differ.

Regarding B1, on p38α, the Kd (as a rule, the constant that tells how readily two partners part at equilibrium) was 382 ± 65 nM. For the same molecule, the “relative binding to ERK2 (in words)” value with ERK2 [1] (ERK2, ITC) is “more strongly than does HePTP”. In the series with ERK2 [1] (ERK2, ITC, versus PTPSLKIM), the “tighter binding to ERK2 than the PTPSLKIM peptide” value is given as about 4 times. Also, the “tighter binding to ERK2 than to p38α (fold difference in affinity)” value in the series with ERK2 [1] (ITC Kd, ERK2 versus p38α) is about 3.5 fold. For the same molecule, the “affinity for ERK2 compared with p38α (in words)” value in the series with ERK2 [1] (ITC, ERK2 versus p38α) is reported as “higher binding affinity for ERK2 than for p38α; also recorded: bind more strongly to ERK2”. In the series with ERK2 [1] (unphosphorylated ERK2, ITC, 25 °C, 10 mM Tris pH 7.5, 150 mM NaCl, 0.1 mM EDTA, 0.5 mM TCEP, average and standard deviation, triplicate), this molecule gave a TΔS of -12.8 ± 2.1 kcal/mol. Besides, the “aggregation of the ERK2:PTPSL complex in SAXS samples” value with ERK2 [2] is “persistently exhibited the typical hallmarks of aggregation”. The “shape of the ERK2:PTPSL resting-state complex (in words)” value in the series with ERK2 [3] is “compact, with ERK2 and PTPSL associating in a side-by-side manner”. Also, in series [4], the Kd came out at 108 nM and the dH is -22.3 kcal/mol.
Take B2: the dH in series [5] is -29.2 kcal/mol; in series [6], -21.6 kcal/mol; in series [7] it was -27.9 kcal/mol.
